This passage reports relative potency (IVRP; inflection point of test vaccine divided by that of reference vaccine) results from patent US20240238401A1.

The assay concerns the target mAb binding to Consensus GII.4 VLPs (BioGenes; IgG clone #1-9-1). The assay can be described thus: IVRP competition ELISA; serially diluted thin-film freeze-dried and reconstituted vaccine (4% trehalose or 5% sucrose, bulk or single-vial TFFD) competes for mAb against plate-coated VLP; reference is undried vaccine. In general terms: An ELISA detects its analyte on a solid surface through an enzyme-linked reagent.

In the case of “Norovirus genotype GII.4 Consensus VLP (from UniProt P54635 1-539)”, the relative potency (IVRP; inflection point of test vaccine divided by that of reference vaccine) is 49 to 73%.
